One molecule from US20160355591A1 can be followed below.

For assay [1], the target named is HLA-DR (L243 antigen) on canine lymphocytes and canine lymphoma cells (dog). Briefly: flow cytometry, dog lymphoma aspirate; none 3.24; control antibody. For orientation: Flow cytometry measures light scatter and fluorescence of single cells or particles in a stream.
The target is the same in assay [2]. Briefly: flow cytometry, dog lymphoma aspirate; none 4.48; control antibody.
The target in assay [3] is HLA-DR (human leukocyte antigen-DR) on human lymphoma and leukemia cells and human lymphocytes (human). Put plainly: indirect FACS, Raji cells, FITC-GAH Fc 2nd Ab; none 6.8; control antibody.
Assay [4] has the same target. Put plainly: indirect FACS, Daudi cells, FITC-GAH Fc 2nd Ab; none 3.1; control antibody.
Assay [5] shares this target. Put plainly: indirect FACS, Ramos cells, FITC-GAH Fc 2nd Ab; none 3.1; control antibody.
In assay [6] the target is HLA-DR (L243 antigen) on canine lymphocytes and canine lymphoma cells (dog). Briefly: flow cytometry, canine lymphoma aspirate 150836; none 3.2; control antibody.
For assay [7] the target is unchanged. Briefly: flow cytometry, canine lymphoma aspirate 150836; none 4.5; control antibody.
The target of assay [8] is HLA-DR (human leukocyte antigen-DR) on human lymphoma and leukemia cells and human lymphocytes (human). Briefly: indirect FACS, Namalwa cells, FITC-GAH Fc 2nd Ab; none 2.5; control antibody.
Assay [9] has the same target. Briefly: indirect FACS, SU-DHL-6 cells, FITC-GAH Fc 2nd Ab; none 4.6; control antibody.
Assay [10] has the same target. Put plainly: indirect FACS, WSU-FSCCL cells, FITC-GAH Fc 2nd Ab; none 2.6; control antibody.
For assay [11] the target is unchanged. Put plainly: indirect flow cytometry, RL cells, FITC-GAH Fc 2nd Ab; none 2.4; negative control antibody.
Assay [12] has the same target. Briefly: indirect flow cytometry, Raji cells, FITC-GAH Fc 2nd Ab; none 6.9; negative control antibody.
Assay [13] shares this target. Put plainly: indirect flow cytometry, Daudi cells, FITC-GAH Fc 2nd Ab; none 3.2; negative control antibody.
Assay [14] shares this target. Briefly: indirect flow cytometry, Ramos cells, FITC-GAH Fc 2nd Ab; none 3.1; negative control antibody.
Assay [15] has the same target. Briefly: indirect flow cytometry, Namalwa cells, FITC-GAH 2nd Ab; none 2.52; control antibody (anti-CEA).
The target is the same in assay [16]. Briefly: indirect flow cytometry, Namalwa cells, FITC-GAH Fc 2nd Ab; none 2.6; negative control antibody.
For assay [17] the target is unchanged. Put plainly: indirect flow cytometry, SU-DHL-6 cells, FITC-GAH Fc 2nd Ab; none 4.6; negative control antibody.
For assay [18] the target is unchanged. Briefly: indirect flow cytometry, WSU-FSCCL cells, FITC-GAH Fc 2nd Ab; none 2.7; negative control antibody.

B1: hMN-14 (labetuzumab, humanized anti-carcinoembryonic antigen IgG1) (antibody, INN chains, looked up, V domains shown)
VH: EVQLVESGGGVVQPGRSLRLSCSASGFDFTTYWMSWVRQAPGKGLEWIGEIHPDSSTINYAPSLKDRFTISRDNAKNTLFLQMDSLRPEDTGVYFCASLYFGFPWFAYWGQGTPVTVSS
VL: DIQLTQSPSSLSASVGDRVTITCKASQDVGTSVAWYQQKPGKAPKLLIYWTSTRHTGVPSRFSGSGSGTDFTFTISSLQPEDIATYYCQQYSLYRSFGQGTKVEIKR
For the molecule B1, the figures for the mean FL in assay [1] and in [6] were 3.24 and 3.2, respectively. Moreover, the % Positive in assay [2] stood at 4.63%; in [7], 4.6%. Moreover, the geometric mean fluorescence in assay [3] was found to be 6.96; in [4], 3.16; in [5], 3.13; in assay [8], 2.36; in [9], 4.94; in [10], 2.66. Also, the geometric mean fluorescence in [11] was found to be 2.8; in assay [12], 7; in [13] it was 3.2; in assay [14], 3.1; in assay [15] it was 2.49; in assay [16] it was 2.4. Further, the results for the geometric mean fluorescence in [17] and in [18] were 4.9 and 2.7, respectively.
